Patent US20050113256A1, “Methods of reducing the nicotine content of tobacco plants and tobacco plants obtained thereby” (priority 2003, published 2005)

System: tobacco leaves (Nicotiana tabacum)
Assay: Treatment of individual tobacco leaves with test solutions, nicotine reduction
Format: in vivo
Conditions: incubated for about 3 days

B1: Inactive GOX: heat treated glucose oxidase, rendered substantially inactive due to the application of heat (protein, UniProt P13006 17-605, looked up)
Glucose oxidase: LPHYIRSNGIEASLLTDPKDVSGRTVDYIIAGGGLTGLTTAARLTENPNISVLVIESGSYESDRGPIIEDLNAYGDIFGSSVDHAYETVELATNNQTALIRSGNGLGGSTLVNGGTWTRPHKAQVDSWETVFGNEGWNWDNVAAYSLQAERARAPNAKQIAAGHYFNASCHGVNGTVHAGPRDTGDDYSPIVKALMSAVEDRGVPTKKDFGCGDPHGVSMFPNTLHEDQVRSDAAREWLLPNYQRPNLQVLTGQYVGKVLLSQNGTTPRAVGVEFGTHKGNTHNVYAKHEVLLAAGSAVSPTILEYSGIGMKSILEPLGIDTVVDLPVGLNLQDQTTATVRSRITSAGAGQGQAAWFATFNETFGDYSEKAHELLNTKLEQWAEEAVARGGFHNTTALLIQYENYRDWIVNHNVAYSELFLDTAGVASFDVWDLLPFTRGYVHILDKDPYLHHFAYDPQYFLNELDLLGQAAATQLARNISNSGAMQTYFAGETIPGDNLAYDADLSAWTEYIPYHFRPNYHGVGTCSMMPKEMGGVVDNAARVYGVQGLRVIDGSIPPTQMSSHVMTVFYAMALKISDAILEDYASMQ
modifications: heat-inactivated
Q: Which “Reduction of Nicotine” value does the source give for B1 here?
A: 0.1 mg/g
